Test results as given in the Human Domainome abundance scans (Beltran et al. 2025).
± gives the uncertainty stated by the source.

B1: Dynamin-binding protein, residues 242 to 304; numbered along this chain, Q6XZF7 (parent)
chain: EEPGTYGVALYRFQALEPNELDFEVGDKIRILATLEDGWLEGSLKGRTGIFPYRFVKLCPDTR

Variants of: B1
Assay: abundance fitness (aPCA) (normalised: wild type 0, dead -1); higher = more abundant; growth selection in yeast, the domain comes from the species named
Conditions: Homo sapiens

Variant	abundance fitness
EEPGTYGVALYRAQALEPNELDFEVGDKIRILATLEDGWLEGSLKGRTGIFPYRFVKLCPDTR [F13A]	-0.804 ± 0.16
EEPGTYGVALYRFQALEFNELDFEVGDKIRILATLEDGWLEGSLKGRTGIFPYRFVKLCPDTR [P18F]	-0.659 ± 0.095
EEPGTYGVALYRFQALEKNELDFEVGDKIRILATLEDGWLEGSLKGRTGIFPYRFVKLCPDTR [P18K]	-0.336 ± 0.17
EEPGTYGVALYRFQALEPNELDFEVGDKIRILATLEDGWLEGSLKGRTGIFPYRFVKVCPDTR [L58V]	-0.064 ± 0.044
EEPGTYGVALYRFQALEPNELDFEVGDKIRILATLEDGWLEGSLKGRTGIFPYRFVKDCPDTR [L58D]	-0.366 ± 0.069
EEPGTYGVALYRFQALEPNELDFEVGDKIRILATLEDGWLEGSLKGRNGIFPYRFVKLCPDTR [T48N]	-0.453 ± 0.076
EEPGTYGVALYRFQALEPNELDFEVGDKIRILATLEDGWLEGSLKGRGGIFPYRFVKLCPDTR [T48G]	-0.685 ± 0.095
EEPGTYGVALYRFQALEPNEIDFEVGDKIRILATLEDGWLEGSLKGRTGIFPYRFVKLCPDTR [L21I]	-0.636 ± 0.19
EEPGTYGVALYRFQALEPNELDFEVGDKIRILATLEDGWLEGSLKGRTGIFPRRFVKLCPDTR [Y53R]	0.211 ± 0.062
EEPGTYGVALYRFQALEPNELDFEVGDKIRILATLEDGWLEGSLKGRTGIFPCRFVKLCPDTR [Y53C]	0.203 ± 0.053
EEPGTYGVALYRFQALEPNELDFEVGDKIRILATLEDGWLEGSLKGRTGIFPERFVKLCPDTR [Y53E]	0.282 ± 0.17
EEPGTYGVALYRFQALEPNELDFEVGDKIRILATLEDGWLEGSLKGRTGIFPDRFVKLCPDTR [Y53D]	0.227 ± 0.053
EEPGTYGVALMRFQALEPNELDFEVGDKIRILATLEDGWLEGSLKGRTGIFPYRFVKLCPDTR [Y11M]	-0.024 ± 0.11
EEPGTYGVALYRFQALEPNELDFEVGDVIRILATLEDGWLEGSLKGRTGIFPYRFVKLCPDTR [K28V]	-0.205 ± 0.056
EEPGTYGVALYRFQALCPNELDFEVGDKIRILATLEDGWLEGSLKGRTGIFPYRFVKLCPDTR [E17C]	-0.259 ± 0.057
EEPGTYGVALYRFQALEPNELDFEVGDKIRILATLEDGWLEGSLKGRTGIFPYRFFKLCPDTR [V56F]	-0.525 ± 0.07
KEPGTYGVALYRFQALEPNELDFEVGDKIRILATLEDGWLEGSLKGRTGIFPYRFVKLCPDTR [E1K]	0.009 ± 0.14
EEPGTYGVALYRFQALEPNELDFEVGDKIRILATLEDGWLEGSLKGRTGIFPYRFVKLCPCTR [D61C]	-0.112 ± 0.058
EEPGTYGVALYRFQALEPNELDFEVGDKIRILATLEDGWLEGSLKGRTGIFPYRFVKLCPFTR [D61F]	-0.247 ± 0.047
EEPGTYGVALYRFQALEPNELDFEVGDKIRILATLEDGWLEGSLKGRTGIFPYRFVKLCPQTR [D61Q]	-0.178 ± 0.14
EEPGTYGVALYRFQALEPNELDFEVGDKIRILATLEDGWIEGSLKGRTGIFPYRFVKLCPDTR [L40I]	-0.244 ± 0.056
EEPGTYGVALYRFQALEPNELDFEVGDKIRILATLEDGWAEGSLKGRTGIFPYRFVKLCPDTR [L40A]	0.18 ± 0.052

Variant	abundance fitness
EEPGTYGVALYRFQALEPNELDFEVGDKIRILATLEDGWNEGSLKGRTGIFPYRFVKLCPDTR [L40N]	-0.784 ± 0.11
EEPGTYGVALYRFQALEPNELDFEVGDKIRILATLEDGWLEGSLKGRTGIFPYRFVKLCPDLR [T62L]	-0.214 ± 0.058
EEPGTYGVALYRFQALEPNELDFEVGDKIRILATLEDGWLEGSLKGRTGIFPYRFVKLDPDTR [C59D]	-0.198 ± 0.066
EEPGTYGVALYRFQALEPNELDFEVMDKIRILATLEDGWLEGSLKGRTGIFPYRFVKLCPDTR [G26M]	-1.02 ± 0.26
EEPGTYGVALYRFQALEPNELDFYVGDKIRILATLEDGWLEGSLKGRTGIFPYRFVKLCPDTR [E24Y]	-0.423 ± 0.079
EEPGTYGVALYRFQALEPNELDFRVGDKIRILATLEDGWLEGSLKGRTGIFPYRFVKLCPDTR [E24R]	-0.445 ± 0.07
EEPGTYGVALYRFQALEPNELDFEVGDKIRILATLEDGMLEGSLKGRTGIFPYRFVKLCPDTR [W39M]	-0.057 ± 0.14
EEPGTYGVALYRFQALEPNELDFEVGDKIRILATLEDGNLEGSLKGRTGIFPYRFVKLCPDTR [W39N]	-0.406 ± 0.068
EEPGTYGVALYRFQALEPNELDFEVGDKIRILATLEDGWLEGSLKGRTGIFPYQFVKLCPDTR [R54Q]	-0.008 ± 0.11
EEPGTVGVALYRFQALEPNELDFEVGDKIRILATLEDGWLEGSLKGRTGIFPYRFVKLCPDTR [Y6V]	-0.135 ± 0.052
EEPGTDGVALYRFQALEPNELDFEVGDKIRILATLEDGWLEGSLKGRTGIFPYRFVKLCPDTR [Y6D]	-0.754 ± 0.11
EEPGTYGVALYRFQALEPNELDFEVGDKIRILATLEDGWLEGSLKGRTGICPYRFVKLCPDTR [F51C]	-0.748 ± 0.092
EEPGTYGVALYRFQALEPNELDFEVGDKIRILATLEDGWLEGSLKGRTGIHPYRFVKLCPDTR [F51H]	-0.792 ± 0.12
EEPGTYGVALYRFQALEPNELDFEVGDKIRILATLEDGWLIGSLKGRTGIFPYRFVKLCPDTR [E41I]	-0.465 ± 0.08
EEPGTYGVALYRFQALEPNMLDFEVGDKIRILATLEDGWLEGSLKGRTGIFPYRFVKLCPDTR [E20M]	0.023 ± 0.11
EEPGTYGVALYRFQALEPNELDFEVGDKIRILATLEDGWLEGMLKGRTGIFPYRFVKLCPDTR [S43M]	-0.127 ± 0.13
EEPGTYGVALYRFQALEPNELDFEVGDKIRILATLEDGWLEGNLKGRTGIFPYRFVKLCPDTR [S43N]	-0.308 ± 0.064
EEPGTYGVALYRFQALEPNELDFEVGDKIRILATLEDGWLEISLKGRTGIFPYRFVKLCPDTR [G42I]	-0.707 ± 0.16
EEPQTYGVALYRFQALEPNELDFEVGDKIRILATLEDGWLEGSLKGRTGIFPYRFVKLCPDTR [G4Q]	0.059 ± 0.15
EEPWTYGVALYRFQALEPNELDFEVGDKIRILATLEDGWLEGSLKGRTGIFPYRFVKLCPDTR [G4W]	-0.312 ± 0.16
EEPGTYGVALYRFQWLEPNELDFEVGDKIRILATLEDGWLEGSLKGRTGIFPYRFVKLCPDTR [A15W]	-0.637 ± 0.23
EEPGTYGVALYRFQALEPNELDFEVGDKIRILATLEDGWLEGSLKGQTGIFPYRFVKLCPDTR [R47Q]	-0.588 ± 0.25

Variant	abundance fitness
EEPGTYGIALYRFQALEPNELDFEVGDKIRILATLEDGWLEGSLKGRTGIFPYRFVKLCPDTR [V8I]	0.064 ± 0.061
EEPGTYGDALYRFQALEPNELDFEVGDKIRILATLEDGWLEGSLKGRTGIFPYRFVKLCPDTR [V8D]	-0.717 ± 0.15
EEPGTYGVALYRFQALEPNELDFEVGDKIRILATEEDGWLEGSLKGRTGIFPYRFVKLCPDTR [L35E]	-0.876 ± 0.4
EEPGTYGVALYRFQALEPNELDFEVGDKIRILATLENGWLEGSLKGRTGIFPYRFVKLCPDTR [D37N]	-0.116 ± 0.06
EEPGTYGVALYRFQALEPNELDFEVGDKIRILATLEIGWLEGSLKGRTGIFPYRFVKLCPDTR [D37I]	-0.89 ± 0.2
EEPGTYGVALYRFQALEPNELDFEVGDKIRILATLEDGWLEGSLKGRTGIFPYRFVKLCCDTR [P60C]	-0.15 ± 0.063
EEPGTYGVALYRFQALEPNELDFEVGDKIRILATLEDGWLEGSLKGRTGIFPYRFVKLCWDTR [P60W]	-0.274 ± 0.16
EEPGTYGVALYRFQALEPNELDFEVGDKIRILATLEDGWLEGSLKGRTGIFPYRFVKLCGDTR [P60G]	0.003 ± 0.049
EEPGTYGVALYRFQALEPNELDFEVGDKIRILATLEDGWLEGSLKGRTGIFFYRFVKLCPDTR [P52F]	-0.826 ± 0.11
EEPGTYGVALYRFQALEPNELDFEVGDKIRILATLEDGWLEGSLKGRTGIFLYRFVKLCPDTR [P52L]	-0.567 ± 0.097
EEPGTYGVALYRFQALEPNELDFEVGDKIRILATLEDGWLEGSLKGRTGIFAYRFVKLCPDTR [P52A]	-0.68 ± 0.097
EEPGTYGVALYRFQALEPNELDFEVGDKIRILATLEDGWLEGSLKGRTGIFNYRFVKLCPDTR [P52N]	-0.767 ± 0.11
EEPGTYGVALYRFQALEPNELDFEVGDKIRILATLEDSWLEGSLKGRTGIFPYRFVKLCPDTR [G38S]	-0.545 ± 0.07
EEPGTYGVALYRFQALEPNELDFEVGDKIRILATLEDGWLEGSLKGRTGIFPYRFVKLCPDTS [R63S]	0.15 ± 0.055
EEPGTYGVALYRFQALEPNELDFEVGDKIFILATLEDGWLEGSLKGRTGIFPYRFVKLCPDTR [R30F]	-0.462 ± 0.1
EEPGTYGVALYRFQALEPNELDFEVGDKIVILATLEDGWLEGSLKGRTGIFPYRFVKLCPDTR [R30V]	-0.73 ± 0.1
EEPGTYGVALYMFQALEPNELDFEVGDKIRILATLEDGWLEGSLKGRTGIFPYRFVKLCPDTR [R12M]	-0.589 ± 0.25
EEPGTYGVALYRFQALEPNELDFEVGDKIRILQTLEDGWLEGSLKGRTGIFPYRFVKLCPDTR [A33Q]	-0.188 ± 0.14
EEPGTYGVALYRFQALEPNELDFEVGDKIRILETLEDGWLEGSLKGRTGIFPYRFVKLCPDTR [A33E]	-0.578 ± 0.26
EEPGTYGVDLYRFQALEPNELDFEVGDKIRILATLEDGWLEGSLKGRTGIFPYRFVKLCPDTR [A9D]	-1.01 ± 0.16
EEPGTYGVTLYRFQALEPNELDFEVGDKIRILATLEDGWLEGSLKGRTGIFPYRFVKLCPDTR [A9T]	-0.623 ± 0.15
EEPGRYGVALYRFQALEPNELDFEVGDKIRILATLEDGWLEGSLKGRTGIFPYRFVKLCPDTR [T5R]	-0.225 ± 0.072

Variant	abundance fitness
EEPGTYGVALYRFQALEPNELDFEVGDKIRILAGLEDGWLEGSLKGRTGIFPYRFVKLCPDTR [T34G]	-0.481 ± 0.06
EEPGTYGVALYRFQALEPNELDFEVGDKIRILANLEDGWLEGSLKGRTGIFPYRFVKLCPDTR [T34N]	-0.289 ± 0.064
EEPGTYGVALYRFQALEPNELDFEYGDKIRILATLEDGWLEGSLKGRTGIFPYRFVKLCPDTR [V25Y]	-0.463 ± 0.086
EEPGTYGVALYRFQALEPNELDFEVGDKIRILATLKDGWLEGSLKGRTGIFPYRFVKLCPDTR [E36K]	-0.099 ± 0.12
EEPGTYGVALYRFQALEPNELDFEVGDKIRILATLCDGWLEGSLKGRTGIFPYRFVKLCPDTR [E36C]	-0.434 ± 0.072
EEPGTYGVALYRFQAEEPNELDFEVGDKIRILATLEDGWLEGSLKGRTGIFPYRFVKLCPDTR [L16E]	-0.027 ± 0.22
EEPGTYGVALYRFQAVEPNELDFEVGDKIRILATLEDGWLEGSLKGRTGIFPYRFVKLCPDTR [L16V]	0.117 ± 0.05
EEPGTYGVALYRFQAREPNELDFEVGDKIRILATLEDGWLEGSLKGRTGIFPYRFVKLCPDTR [L16R]	0.316 ± 0.058
EEYGTYGVALYRFQALEPNELDFEVGDKIRILATLEDGWLEGSLKGRTGIFPYRFVKLCPDTR [P3Y]	0.053 ± 0.07
EEPGTYGVALYRFQALEPNELDFEVGDKIRSLATLEDGWLEGSLKGRTGIFPYRFVKLCPDTR [I31S]	-0.879 ± 0.11
EEPGTYGVALYRFQALEPNELDFEVGDKRRILATLEDGWLEGSLKGRTGIFPYRFVKLCPDTR [I29R]	-0.649 ± 0.1
EEPGTYGVALYRFQALEPNELDFEVGDKQRILATLEDGWLEGSLKGRTGIFPYRFVKLCPDTR [I29Q]	-0.955 ± 0.41
EEPGTYGVALYRFQALEPNELFFEVGDKIRILATLEDGWLEGSLKGRTGIFPYRFVKLCPDTR [D22F]	-0.016 ± 0.059
EEPGTYGVALYRFQALEPNELVFEVGDKIRILATLEDGWLEGSLKGRTGIFPYRFVKLCPDTR [D22V]	-0.682 ± 0.084
EEPGTYGVALYRFQALEPNELNFEVGDKIRILATLEDGWLEGSLKGRTGIFPYRFVKLCPDTR [D22N]	-0.04 ± 0.052
EAPGTYGVALYRFQALEPNELDFEVGDKIRILATLEDGWLEGSLKGRTGIFPYRFVKLCPDTR [E2A]	-0.586 ± 0.099
EEPGTYGVALYRFQALEPNELDFEVGDKIRILATLEDGWLEGSLKGRTGIFPYRNVKLCPDTR [F55N]	-0.399 ± 0.044
EEPGTYGVALYRFQALEPVELDFEVGDKIRILATLEDGWLEGSLKGRTGIFPYRFVKLCPDTR [N19V]	-0.563 ± 0.068
EEPGTYGVALYRFQALEPLELDFEVGDKIRILATLEDGWLEGSLKGRTGIFPYRFVKLCPDTR [N19L]	-0.52 ± 0.086
